Among the data in patent US20220332804A1 (CSL INNOVATION, published 2022) are Fold diff values, retold here.

Experiment in all cases: SPR; KD relative to WT C2;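 note: biacore SPR at 37 °C, anti-C2 mAbs captured on an anti-human IgG chip, alanine or serine C2 surface mutants tested, KD from 1:1 fit compared with wild-type C2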
In experiment [1] the target is T1, human C2 A326S (human, UniProt P06681 21-752).
T1 sequence: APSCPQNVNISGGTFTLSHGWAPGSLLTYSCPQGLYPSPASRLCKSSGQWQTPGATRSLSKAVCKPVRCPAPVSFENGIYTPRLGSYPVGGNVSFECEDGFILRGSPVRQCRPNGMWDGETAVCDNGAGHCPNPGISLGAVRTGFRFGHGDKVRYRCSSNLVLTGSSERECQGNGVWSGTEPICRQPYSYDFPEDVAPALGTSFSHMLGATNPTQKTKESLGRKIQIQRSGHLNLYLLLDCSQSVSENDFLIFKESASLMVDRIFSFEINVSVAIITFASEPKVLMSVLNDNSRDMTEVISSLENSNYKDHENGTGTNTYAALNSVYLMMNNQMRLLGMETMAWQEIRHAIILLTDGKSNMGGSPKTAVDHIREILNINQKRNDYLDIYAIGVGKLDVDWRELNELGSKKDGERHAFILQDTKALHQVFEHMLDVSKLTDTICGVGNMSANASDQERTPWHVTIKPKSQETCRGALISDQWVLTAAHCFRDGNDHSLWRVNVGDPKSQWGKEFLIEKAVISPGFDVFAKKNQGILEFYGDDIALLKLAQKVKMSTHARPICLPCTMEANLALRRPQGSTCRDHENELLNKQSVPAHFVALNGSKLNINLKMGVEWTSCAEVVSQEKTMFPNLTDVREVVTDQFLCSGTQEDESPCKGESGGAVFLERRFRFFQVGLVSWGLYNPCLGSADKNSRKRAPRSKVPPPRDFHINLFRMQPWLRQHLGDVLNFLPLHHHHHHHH

For experiment [2], the target named is T2, human C2 K415A (human, UniProt P06681 21-752).
T2 sequence: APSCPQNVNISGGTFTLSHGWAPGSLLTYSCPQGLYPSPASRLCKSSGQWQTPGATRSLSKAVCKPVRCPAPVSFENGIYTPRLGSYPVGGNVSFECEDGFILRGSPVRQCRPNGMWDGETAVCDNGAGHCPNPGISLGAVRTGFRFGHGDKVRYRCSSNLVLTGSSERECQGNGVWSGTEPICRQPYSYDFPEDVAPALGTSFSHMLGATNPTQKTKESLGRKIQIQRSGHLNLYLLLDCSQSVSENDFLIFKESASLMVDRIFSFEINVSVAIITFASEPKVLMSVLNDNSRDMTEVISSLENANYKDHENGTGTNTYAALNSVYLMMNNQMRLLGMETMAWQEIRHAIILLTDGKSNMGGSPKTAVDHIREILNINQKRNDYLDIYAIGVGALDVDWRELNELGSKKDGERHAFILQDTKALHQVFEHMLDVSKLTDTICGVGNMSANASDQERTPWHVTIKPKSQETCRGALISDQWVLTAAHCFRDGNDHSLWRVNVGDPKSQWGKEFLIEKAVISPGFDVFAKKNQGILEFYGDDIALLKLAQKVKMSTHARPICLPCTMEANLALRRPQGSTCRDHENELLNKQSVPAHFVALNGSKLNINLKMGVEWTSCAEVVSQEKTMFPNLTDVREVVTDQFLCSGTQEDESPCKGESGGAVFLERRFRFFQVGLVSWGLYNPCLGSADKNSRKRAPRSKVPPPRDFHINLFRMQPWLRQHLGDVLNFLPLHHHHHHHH

Experiment [3] addresses T3, human C2 E450A (human, UniProt P06681 21-752).
T3 sequence: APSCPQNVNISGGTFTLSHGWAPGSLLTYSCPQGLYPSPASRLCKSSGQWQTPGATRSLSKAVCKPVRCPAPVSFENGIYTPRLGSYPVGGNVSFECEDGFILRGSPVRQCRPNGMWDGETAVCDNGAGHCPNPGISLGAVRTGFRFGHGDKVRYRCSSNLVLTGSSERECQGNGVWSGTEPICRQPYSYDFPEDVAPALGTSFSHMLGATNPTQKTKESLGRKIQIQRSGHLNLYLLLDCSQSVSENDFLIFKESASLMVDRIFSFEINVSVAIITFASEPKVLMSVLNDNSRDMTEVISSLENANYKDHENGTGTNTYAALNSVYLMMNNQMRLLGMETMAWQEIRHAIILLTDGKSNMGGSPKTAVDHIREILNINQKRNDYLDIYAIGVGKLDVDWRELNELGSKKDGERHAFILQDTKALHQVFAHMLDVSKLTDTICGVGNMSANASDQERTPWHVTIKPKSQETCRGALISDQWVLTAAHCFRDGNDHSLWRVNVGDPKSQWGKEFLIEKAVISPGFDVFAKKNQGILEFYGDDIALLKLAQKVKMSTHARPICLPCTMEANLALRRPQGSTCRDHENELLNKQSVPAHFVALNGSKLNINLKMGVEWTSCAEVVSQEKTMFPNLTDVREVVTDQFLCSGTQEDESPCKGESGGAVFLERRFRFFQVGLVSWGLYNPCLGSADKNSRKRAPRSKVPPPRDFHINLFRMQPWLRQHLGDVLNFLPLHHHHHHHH

In experiment [4] the target is T4, human C2 D404A (human, UniProt P06681 21-752).
T4 sequence: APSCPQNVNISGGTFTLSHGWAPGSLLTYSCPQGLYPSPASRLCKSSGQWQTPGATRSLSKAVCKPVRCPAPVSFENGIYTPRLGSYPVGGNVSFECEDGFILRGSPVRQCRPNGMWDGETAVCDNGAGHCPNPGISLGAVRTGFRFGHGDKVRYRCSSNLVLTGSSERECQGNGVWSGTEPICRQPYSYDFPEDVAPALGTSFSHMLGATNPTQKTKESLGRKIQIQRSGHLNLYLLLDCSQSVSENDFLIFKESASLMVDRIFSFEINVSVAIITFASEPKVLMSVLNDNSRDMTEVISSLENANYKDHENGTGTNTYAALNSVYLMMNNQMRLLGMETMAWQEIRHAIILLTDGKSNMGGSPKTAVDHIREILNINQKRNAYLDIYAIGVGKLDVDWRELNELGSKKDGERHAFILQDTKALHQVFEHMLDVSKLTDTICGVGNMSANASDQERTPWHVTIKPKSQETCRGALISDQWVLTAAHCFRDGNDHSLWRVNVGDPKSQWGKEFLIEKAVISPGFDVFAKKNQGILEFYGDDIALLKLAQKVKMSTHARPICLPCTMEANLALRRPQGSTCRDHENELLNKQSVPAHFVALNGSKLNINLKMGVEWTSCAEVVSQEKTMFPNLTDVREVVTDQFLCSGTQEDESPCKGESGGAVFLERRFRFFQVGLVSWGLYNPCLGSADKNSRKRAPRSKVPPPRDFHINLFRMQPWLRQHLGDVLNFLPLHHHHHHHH

B1: RF16-214 (antibody, V domains shown)
VH: EVQLLESGGGLVQPGGSLRLSCAASGFTFSWYQMMWVRQAPGKGLEWVSRIYPSGGGTAYADSVKGRFTISRDNSKNTLYLQMNSLRAEDTAVYYCARDAGYGDNWGQGTLVTVSS
VL: QSALTQPPSVSVSPGQTASITCSGDKLGEKYASWYQQKAGQSPVMVIYQDRKRPSGIPERFSGSNSGNTATLTISGTQAMDEADYYCQAWDTRAVVFGGGTKLTVLG
In the case of B1, the Fold diff in experiment [1] was 1 fold; in experiment [2] it was 1 fold; in experiment [3] it was 20 fold; in experiment [4], 3 fold.
